Paper doi:10.1101/329136

Tests used:
[1] = molecular target: talin VBS1 (H1-H4) residues 482-636 (UniProt Q9Y490); assay: ITC
[2] = molecular target: IpaA 483-633 containing all three VBS1-3 (A483) (Shigella flexneri) (UniProt P18010); assay: ITC
[3] = molecular target: IpaA 524-633 containing only IpaA VBS1-2 (A524) (Shigella flexneri) (UniProt P18010); assay: ITC
[4] = molecular target: IpaA 483-633 containing all three VBS1-3 (A483) (Shigella flexneri) (UniProt P18010); assay: SEC-MALS
[5] = molecular target: talin VBS1 (H1-H4) residues 482-636 (UniProt Q9Y490); assay: SEC-MALS

Substance: IpaA VTBS R489A K498A peptide
- Kd [1]: 328 nM

Substance: IpaA VTBS A495K peptide
- Kd [1]: 2930 nM

Substance: IpaA-VBS1 peptide (611-633) (from UniProt P18010 611-633)
- Kd [1]: 15200 nM

Substance: IpaA VTBS peptide (488-512)
- Kd [1]: 174 nM

Substance: IpaA VTBS K498E peptide
- Kd [1]: 300 nM

Substance: Talin VBS50 peptide
- Kd [1]: 15000 to 45000 nM

Substance: Talin VBS46 peptide
- Kd [1]: 60 nM

Substance: talin VBS1 (H1-H4) residues 482-636 (from UniProt Q9Y490 482-636) (domain or fragment)
- KD of the first, high affinity site [2]: 115 nM
- KD of the second site [2]: 4600 nM
- Kd [3]: 2000 nM
- stoichiometry N (talin H1-H4 per A483) [4]: 2
- stoichiometry N [5]: 2
